From article PMC13216289 (NPJ Vaccines, 2026)

B1: Ab17 (antibody, V domains shown)
VH: QVQLRESGPSSLKPSQTLSLTCAVSGFSLSTYAVGWVRQAPGKALEWVGDITSSGDTFYNPALKSRFSITKDNSKNQVSLSVGSVTPEDTATFYCTRLTCGDDCSTAWHNFDAWGQGLLVTVSS
VL: SYELTQPTSVSVALGQTAKITCSGDLLDVQYTQWYQQKPGQGPVRVIYKDSERPSGISDRFSGSSSGKTATLIISGAQTEDEADYYCQSTDSSQYGIFGRGTTLTVL
B2: Ab34 (antibody, V domains shown)
VH: QVQLRESGPSLVKPSQTLSLTCTVSGFSLTDVHVGWVRQTPGKALEWVGVICNRGAIGYNPALESRLSITEDNSKSQVSLSLSSVTTADTATYYCASSCRTEGDVGGDCDSDHFFCAWGQGLLVTVSS
VL: SYELTQPTSVSVALGQTAKITCSGDLLDRQYAQWYQQKPGQGPVRVIYKDSERPSGISDRFSGSSSGKTATLTVSGAQTEDEADYYCHSADSSHYPVFGSGSTLTVL
B3: Ab49 (antibody, V domains shown)
VH: QVQLRESGPSLVKPSQTLSLTCTVSGFSLTNYAVGWVRQAPGKAIQSLSIISTTGDTYYNPALKSRLSITKDNSKSQVSLSVSSVAPEDTATYYCVKFCGNADSAGHGWGCDYGDNENWGQGLLVTVSS
VL: SYELTQPTSVSVALGQTAKITCSGDLLDEQYTQWYQQKPGQGPVRVIYKDSERPSGISDRFSGSSSGKTATLTISGAQTEDEADYYCQSFYSSTDPVFGSGTTLTVL

How the values were obtained:
Details in all cases: both partners purified
[1] = biological target: VP1 subunit of reduced O1M VLPs (Foot-and-mouth disease virus …, UniProt Q6PMW3); assay: far-Western, overlay or dot blot
[2] = biological target: VP1 C-terminal peptide, residues 199-213 of O/UKG/34/2001 (Foot-and-mouth disease virus …, UniProt Q80B19); assay: ELISA
[3] = biological target: VP1 C-terminal peptide, residues 196-210 of O/UKG/34/2001 (Foot-and-mouth disease virus …, UniProt Q80B19); assay: ELISA

Binder	binding result [1]	binding result [2]	binding result [3]
B1	binds	binds	binds
B2	binds		
B3	binds	binds	binds
